# Reference: IntAct's records for PubMed 21423209
# B1: Catenin beta-1 (Homo sapiens), P35222 (parent)
# chain: MATQADLMELDMAMEPDRKAAVSHWQQQSYLDSGIHSGATTTAPSLSGKGNPEEEDVDTSQVLYEWEQGFSQSFTQEQVADIDGQYAMTRAQRVRAAMFPETLDEGMQIPSTQFDAAHPTNVQRLAEPSQMLKHAVVNLINYQDDAELATRAIPELTKLLNDEDQVVVNKAAVMVHQLSKKEASRHAIMRSPQMVSAIVRTMQNTNDVETARCTAGTLHNLSHHREGLLAIFKSGGIPALVKMLGSPVDSVLFYAITTLHNLLLHQEGAKMAVRLAGGLQKMVALLNKTNVKFLAITTDCLQILAYGNQESKLIILASGGPQALVNIMRTYTYEKLLWTTSRVLKVLSVCSSNKPAIVEAGGMQALGLHLTDPSQRLVQNCLWTLRNLSDAATKQEGMEGLLGTLVQLLGSDDINVVTCAAGILSNLTCNNYKNKMMVCQVGGIEALVRTVLRAGDREDITEPAICALRHLTSRHQEAEMAQNAVRLHYGLPVVVKLLHPPSHWPLIKATVGLIRNLALCPANHAPLREQGAIPRLVQLLVRAHQDTQRRTSMGGTQQQFVEGVRMEEIVEGCTGALHILARDVHNRIVIRGLNTIPLFVQLLYSPIENIQRVAAGVLCELAQDKEAAEAIEAEGATAPLTELLHSRNEGVATYAAAVLFRMSEDKPQDYKKRLSVELTSSLFRTEPMAWNETADLGLDIGAQGEPLGYRQDDPSYRSFHSGGYGQDALGMDPMMEHEMGGHHPGADYPVDGLPDLGHAQDLMDGLPPGDSNQLAWFDTDL
# Variants of: B1
# Conditions: with ron_mouse Mst1r
row,Variant,effect of a mutation on the interaction
1,Y654F;Y670F,disrupting interaction
